Source: the supplement of paper PMC10567573

B1: UFD1L (parent)
chain: EAGGRFVAFSGEGQSLRKKGRKP
B2: KCNK9 (parent)
chain: DVPDLQSVCSCTCYRSQDYGGRSV

Variants of: B1
Assay: protein stability index of a GFP-peptide fusion (GPS, HEK-293T) (PSI 1-6); higher = more stable
Settings: c terminus: native
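Note: lentivirally expressed fusions sorted by FACS into six bins by GFP to DsRed ratio, PSI derived from sequencing read proportions per bin multiplied by bin number.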

Protein stability index of substitutions, site by site:
G11: N 1.82
F6: S 2.41; D 4.59; P 3.15; G 2.2; Q 2.17
G3: S 1.82; E 2.71; W 1.67
F9: I 1.19; A 3.29; R 3.73
A2: Y 2.35
R21: Q 5.19; Y 4.7; A 4.78; S 2.83; C 3.45
G4: Q 1.92; N 1; T 1.5
Q14: R 2.51; S 2.5; C 3.07; E 1.58; D 1.26
L16: R 2.64; E 2.53; D 3.34; Q 2.72
K22: F 2.77; I 2.43; G 2.15; T 1.45
R5: Q 3.3; A 3.01; S 3.17; K 2.01; M 1.85; D 4.49
G20: A 3.91; Q 3.83
E1: C 2.5; G 2.5
K19: P 1.07
S15: A 2.2; H 2.1; L 2.95; P 2.16
S10: K 1.4; T 1.77; N 2.98
G13: P 2.73; L 2.52; S 1.9; K 2.03
P23: S 3.2; Q 4.65
R17: D 3; N 3.46; T 2.03; C 1.48
V7: S 1.72; I 1.9; A 2.69; F 1.9
K18: C 2.11; V 1.39; R 1.48

Variants of: B2
Assay: as above
Settings: c terminus: a fixed tail appended

Protein stability index of substitutions, site by site:
P3: Q 1.93; S 1.99; W 1.33; E 2; D 1.36; A 1.34; H 1.8; N 1.45; M 2.11; Y 1.4; T 1.73; I 2.22; K 1.12; G 1.41; C 2.14
D4: S 1.86; G 1.45; I 2.81; P 2.05; T 2.48; K 2.17; Y 2.86; E 2.06; C 1.64; N 2.07; F 1.4; L 1.75; Q 3.18; M 2.28
V2: K 2.43; Y 1.82; G 1.5; D 1.78; P 1.55; H 1.67; A 1.84; Q 1.59; M 2.31; T 2.57; E 2.93; R 2.2; C 2.07; N 2.7; S 2.19; W 1.68; F 1.69; I 1.78
L5: M 1.79; P 2.64; F 2.15; C 1.83; N 2.19; W 1.71; V 2.4; A 1.63; S 1.41; D 2.42; Q 2.38; R 1.77; K 1.9; E 3.6; Y 1.71; H 1.82; I 2.54; T 2.12; G 1.65
D1: A 1.54; I 1.33; G 1.26; Q 2.87; K 2.23; P 2.33; S 2.29; N 1.29; M 1.54; C 1.04; E 1.44; T 1.86; H 3.67; R 1.62; V 1.51; L 2.59
Q6: M 2.61; N 1.82; G 1.63; H 1.88; R 2.73; D 2.27; S 1.59; T 1.85; K 1.98; L 3.01; P 1.5; C 2.56; E 1.3; V 1.97; I 2.39; A 1.65
